Results reported in publication PMC8280356, “Purification and Characterization of Nit_(phym), a Robust Thermostable Nitrilase From Paraburkholderia phymatum” (Frontiers in Bioengineering and Biotechnology, 2021).

Biological target: the molecule itself
Experiment: SEC; analytical gel filtration on Superdex 200 Increase 10/300 GL; 100 uL of purified protein at 3.9 mg/mL; mobile phase 50 mM Tris-HCl pH 8.0, 0.15 mM NaCl, 10% glycerol, 0.3 mL/min; elution volume compared to a calibration curve of proteins of known molecular weight

B1: Nit_(phym), nitrilase from Paraburkholderia phymatum DSM 17167 (enzyme, UniProt B2JQY2 1-340, looked up)
chain: MSDQRVIRAAAVQIAPDFERPGGTLDRVCAAIDEAASKGVQLIVFPETFVPYYPYFSFVRPPVASGADHMRLYEQAVVVPGPVTHAVSERARRHAMVVVLGVNERDHGSLYNTQLVFDIDGCQVLKRRKITPTFHERMIWGQGDAAGLKVARTGIARVGALACWEHYNPLARYALMTQHEEIHCSQFPGSLVGPIFAEQIEVTIRHHALESGCFVVNSTGWLSDAQIESVTTDPKLQKALRGGCMTAIVSPEGQHLAEPLREGEGMVVADLDMALITKRKRMMDSVGHYARPELLSLAINDRPAMPVVPMSMSFERAGADVAPEIISGGQDECQHEPVAG
notes: nitrilase Nit_(phym) (NIT188) from Paraburkholderia phymatum DSM 17167, Uniprot ID B2JQY2; subunit with an apparent molecular mass of 37 kDa on SDS-PAGE; also called NIT188
In the case of B1, the “stoichiometry N” value is reported as greater than 18 subunits.
